Laboratory results: the supplement of paper PMC9112550, “Optimization of the antimicrobial peptide Bac7 by deep mutational scanning” (BMC Biology, 2022)

The sequences below were run on Escherichia coli TOP10 (assay: shrunken log2 fold change of peptide-encoding DNA abundance (4.5 h post-induction vs induction); higher = less antimicrobial activity (less host growth inhibition)). Conditions: time post-induction: 4.5 h; library: site-saturation at positions 5, 18, 19, 20.
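Also: peptides expressed intracellularly from a pBAD plasmid library in pooled LB shake-flask culture, induced with 0.3% L-arabinose, DNA abundance read by NGS, three biological replicates, DESeq2 with apeglm shrinkage.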

Sequence	shrunken log2 fold change
RRIRCRPPRLPRPRPRPKLWPRP	0.121
RRIRCRPPRLPRPRPRPKNHPRP	-0.461
RRIRCRPPRLPRPRPRPKNKPRP	-0.244
RRIRCRPPRLPRPRPRPKQLPRP	-0.0668
RRIRCRPPRLPRPRPRPKQYPRP	-0.629
RRIRCRPPRLPRPRPRPKRGPRP	0.27
RRIRCRPPRLPRPRPRPKSKPRP	-0.338
RRIRCRPPRLPRPRPRPKTEPRP	-0.0486
RRIRCRPPRLPRPRPRPKVPPRP	-0.0562
RRIRCRPPRLPRPRPRPKWLPRP	-0.0375
RRIRCRPPRLPRPRPRPLAYPRP	-0.616
RRIRCRPPRLPRPRPRPLCMPRP	-0.0162
RRIRCRPPRLPRPRPRPLCTPRP	-0.088
RRIRCRPPRLPRPRPRPLDRPRP	-0.478
RRIRCRPPRLPRPRPRPLEPPRP	0.0773
RRIRCRPPRLPRPRPRPLGDPRP	1.87
RRIRCRPPRLPRPRPRPLGEPRP	0.277
RRIRCRPPRLPRPRPRPLGNPRP	-0.229
RRIRCRPPRLPRPRPRPLISPRP	-0.3
RRIRCRPPRLPRPRPRPLKTPRP	-0.0197
RRIRCRPPRLPRPRPRPLLPPRP	-0.143
RRIRCRPPRLPRPRPRPLPFPRP	-0.71
RRIRCRPPRLPRPRPRPLPQPRP	0.334
RRIRCRPPRLPRPRPRPLQCPRP	-0.279
RRIRCRPPRLPRPRPRPLQIPRP	-0.213

Sequence	shrunken log2 fold change
RRIRCRPPRLPRPRPRPLQWPRP	-0.0609
RRIRCRPPRLPRPRPRPLRIPRP	-0.0238
RRIRCRPPRLPRPRPRPLRNPRP	0.272
RRIRCRPPRLPRPRPRPLSHPRP	-0.432
RRIRCRPPRLPRPRPRPLSTPRP	-0.229
RRIRCRPPRLPRPRPRPLTMPRP	-0.262
RRIRCRPPRLPRPRPRPLTRPRP	0.258
RRIRCRPPRLPRPRPRPLTVPRP	-0.483
RRIRCRPPRLPRPRPRPLVHPRP	-0.075
RRIRCRPPRLPRPRPRPLWPPRP	0.076
RRIRCRPPRLPRPRPRPLYNPRP	-1.22
RRIRCRPPRLPRPRPRPMCNPRP	-0.378
RRIRCRPPRLPRPRPRPMDQPRP	0.337
RRIRCRPPRLPRPRPRPMFMPRP	-0.246
RRIRCRPPRLPRPRPRPMFRPRP	-0.179
RRIRCRPPRLPRPRPRPMNYPRP	-0.226
RRIRCRPPRLPRPRPRPMPCPRP	-0.688
RRIRCRPPRLPRPRPRPMPWPRP	0.0515
RRIRCRPPRLPRPRPRPMQIPRP	0.0467
RRIRCRPPRLPRPRPRPMRAPRP	0.919
RRIRCRPPRLPRPRPRPMRDPRP	0.281
RRIRCRPPRLPRPRPRPMRGPRP	1.05
RRIRCRPPRLPRPRPRPMRYPRP	0.0209
RRIRCRPPRLPRPRPRPMSCPRP	-0.0327
RRIRCRPPRLPRPRPRPMSPPRP	-0.0415

Sequence	shrunken log2 fold change
RRIRCRPPRLPRPRPRPMSTPRP	-0.0888
RRIRCRPPRLPRPRPRPMVYPRP	-0.187
RRIRCRPPRLPRPRPRPMWNPRP	-0.195
RRIRCRPPRLPRPRPRPMYVPRP	-0.766
RRIRCRPPRLPRPRPRPNAYPRP	-0.502
RRIRCRPPRLPRPRPRPNCRPRP	-0.00263
RRIRCRPPRLPRPRPRPNCYPRP	-0.209
RRIRCRPPRLPRPRPRPNEMPRP	-0.123
RRIRCRPPRLPRPRPRPNESPRP	-0.00497
RRIRCRPPRLPRPRPRPNFYPRP	-0.228
RRIRCRPPRLPRPRPRPNHAPRP	-0.00846
RRIRCRPPRLPRPRPRPNIFPRP	-0.432
RRIRCRPPRLPRPRPRPNIPPRP	-0.822
RRIRCRPPRLPRPRPRPNIVPRP	-0.34
RRIRCRPPRLPRPRPRPNKHPRP	-0.541
RRIRCRPPRLPRPRPRPNMGPRP	-0.14
RRIRCRPPRLPRPRPRPNNVPRP	-0.687
RRIRCRPPRLPRPRPRPNPKPRP	0.055
RRIRCRPPRLPRPRPRPNSVPRP	-0.143
RRIRCRPPRLPRPRPRPNTHPRP	-0.499
RRIRCRPPRLPRPRPRPNTRPRP	-0.267
RRIRCRPPRLPRPRPRPNVNPRP	-0.461
RRIRCRPPRLPRPRPRPNWSPRP	-0.206
RRIRCRPPRLPRPRPRPNWWPRP	0.32
RRIRCRPPRLPRPRPRPPAFPRP	0.504

Sequence	shrunken log2 fold change
RRIRCRPPRLPRPRPRPPAKPRP	0.741
RRIRCRPPRLPRPRPRPPALPRP	0.415
RRIRCRPPRLPRPRPRPPCYPRP	-0.265
RRIRCRPPRLPRPRPRPPEKPRP	0.299
RRIRCRPPRLPRPRPRPPENPRP	0.2
RRIRCRPPRLPRPRPRPPFSPRP	0.236
RRIRCRPPRLPRPRPRPPGFPRP	0.822
RRIRCRPPRLPRPRPRPPGSPRP	0.379
RRIRCRPPRLPRPRPRPPGTPRP	0.519
RRIRCRPPRLPRPRPRPPHIPRP	0.177
RRIRCRPPRLPRPRPRPPKEPRP	0.203
RRIRCRPPRLPRPRPRPPKSPRP	0.772
RRIRCRPPRLPRPRPRPPLGPRP	0.807
RRIRCRPPRLPRPRPRPPLLPRP	-0.0189
RRIRCRPPRLPRPRPRPPLMPRP	0.121
RRIRCRPPRLPRPRPRPPLYPRP	0.429
RRIRCRPPRLPRPRPRPPMFPRP	-0.121
RRIRCRPPRLPRPRPRPPMHPRP	0.183
RRIRCRPPRLPRPRPRPPMSPRP	-0.178
RRIRCRPPRLPRPRPRPPNMPRP	-0.302
RRIRCRPPRLPRPRPRPPNVPRP	0.213
RRIRCRPPRLPRPRPRPPPTPRP	1.48
RRIRCRPPRLPRPRPRPPQGPRP	0.29
RRIRCRPPRLPRPRPRPPQMPRP	0.0913
RRIRCRPPRLPRPRPRPPQVPRP	0.204

Sequence	shrunken log2 fold change
RRIRCRPPRLPRPRPRPPTEPRP	1.77
RRIRCRPPRLPRPRPRPPTHPRP	0.172
RRIRCRPPRLPRPRPRPPTSPRP	0.428
RRIRCRPPRLPRPRPRPPVWPRP	0.129
RRIRCRPPRLPRPRPRPPWEPRP	-0.0369
RRIRCRPPRLPRPRPRPPWTPRP	0.224
RRIRCRPPRLPRPRPRPPYLPRP	-0.87
RRIRCRPPRLPRPRPRPPYTPRP	-0.343
RRIRCRPPRLPRPRPRPQCFPRP	-0.187
RRIRCRPPRLPRPRPRPQDAPRP	0.0575
RRIRCRPPRLPRPRPRPQDHPRP	-0.226
RRIRCRPPRLPRPRPRPQEAPRP	0.0141
RRIRCRPPRLPRPRPRPQEFPRP	-0.366
RRIRCRPPRLPRPRPRPQEYPRP	-0.399
RRIRCRPPRLPRPRPRPQHCPRP	-0.287
RRIRCRPPRLPRPRPRPQHFPRP	-0.0667
RRIRCRPPRLPRPRPRPQKMPRP	-0.0362
RRIRCRPPRLPRPRPRPQMHPRP	-0.27
RRIRCRPPRLPRPRPRPQPKPRP	0.273
RRIRCRPPRLPRPRPRPQQLPRP	-0.054
RRIRCRPPRLPRPRPRPQREPRP	-0.0986
RRIRCRPPRLPRPRPRPQRIPRP	0.0509
RRIRCRPPRLPRPRPRPQTCPRP	0.034
RRIRCRPPRLPRPRPRPQTLPRP	-0.148
RRIRCRPPRLPRPRPRPQWHPRP	0.0206

Sequence	shrunken log2 fold change
RRIRCRPPRLPRPRPRPQYKPRP	-0.991
RRIRCRPPRLPRPRPRPRALPRP	0.113
RRIRCRPPRLPRPRPRPRATPRP	0.509
RRIRCRPPRLPRPRPRPRCPPRP	0.418
RRIRCRPPRLPRPRPRPREFPRP	0.339
RRIRCRPPRLPRPRPRPREWPRP	-0.0656
RRIRCRPPRLPRPRPRPRFYPRP	-0.234
RRIRCRPPRLPRPRPRPRGDPRP	0.867
RRIRCRPPRLPRPRPRPRGQPRP	-0.0954
RRIRCRPPRLPRPRPRPRHQPRP	0.18
RRIRCRPPRLPRPRPRPRHYPRP	-0.393
RRIRCRPPRLPRPRPRPRKNPRP	-0.00471
RRIRCRPPRLPRPRPRPRLLPRP	0.159
RRIRCRPPRLPRPRPRPRMMPRP	-0.11
RRIRCRPPRLPRPRPRPRMQPRP	0.349
RRIRCRPPRLPRPRPRPRMYPRP	-0.562
RRIRCRPPRLPRPRPRPRNIPRP	-0.33
RRIRCRPPRLPRPRPRPRPCPRP	0.339
RRIRCRPPRLPRPRPRPRPEPRP	0.44
RRIRCRPPRLPRPRPRPRPWPRP	0.432
RRIRCRPPRLPRPRPRPRQKPRP	0.466
RRIRCRPPRLPRPRPRPRQMPRP	-0.136
RRIRCRPPRLPRPRPRPRQQPRP	-0.245
RRIRCRPPRLPRPRPRPRQWPRP	-0.108
RRIRCRPPRLPRPRPRPRSVPRP	0.318
